Measured values taken from US6998383B2, “Inhibitors of receptor activator of NF-κB and uses thereof” (Research Development Corporation, priority 2001, dated 2006).

Assays:
[1] = test system: bone marrow-derived mouse monocytes; assay: RANKL and M-CSF-mediated osteoclast differentiation in bone marrow-derived mouse monocytes (TRAP staining); format: cell-based; conditions: M-CSF 10 ng/ml and RANKL 30 ng/ml (FIGS. 3A, 3B)
Experimental: After 6-7 days, the cells were fixed and stained for TRAP. The numbers of multi-nucleated, TRAP positive osteoclasts were counted.
Mouse-derived monocytes were plated in 48-well plates and costimulated as in FIG. 3A with murine M-CSF (10 ng/ml) and RANKL (30 ng/ml) in the absence (left panel) or presence of the indicated peptides. After 6-7 days, the cells were fixed and stained for TRAP. A representative field from each well was taken at a magnification of 10×.
(§1) Primary bone marrow monocytes (BM) or RAW264.7 cells were cultured in 48-well dishes at a density of 1×10^5 cells/well or 2×10^3 cells/well, and then treated with the indicated factors at the beginning of the culture and during a medium change on day 3. Osteoclast formation was assessed by counting the total number of multi-nucleated (>3 nuclei), TRAP-positive cells present per well between day 7 and 10 (BM) or on day 5 (RAW264.7) (30).
To further support the results obtained from the RAW264.7 cell line, the ability of these peptides to inhibit RANKL-mediated osteoclast differentiation in primary mouse-derived monocytes was tested. Costimulation of bone marrow-derived monocytes with RANKL and M-CSF cause osteoclast differentiation after 7-10 days, as determined by staining multi-nucleated, TRAP positive osteoclasts (30). Similar to the results with RAW264.7 cells, both L-T6DP-1 and L-T6DP-2 inhibited the development of TRAP positive osteoclast in a dose-dependent manner and L-T6DP-1 was much more efficient (FIGS. 3A and 3B).

[2] = biological target: T1, TRAF2 binding to the cytoplasmic domain of RANK (Homo sapiens, UniProt Q12933); assay: Competitive GST-pull down assay, TRAF2 binding to RANK cytoplasmic domain; conditions: 100 μM peptide, FLAG-TRAF2 293 cell extract (FIG. 4C)
T1 construct: expressed in transfected cells; host or cells: human 293 cells (TRAF lysate); The GST-RANK fusion was purified as previously described
T1 sequence (Q12933 1-501): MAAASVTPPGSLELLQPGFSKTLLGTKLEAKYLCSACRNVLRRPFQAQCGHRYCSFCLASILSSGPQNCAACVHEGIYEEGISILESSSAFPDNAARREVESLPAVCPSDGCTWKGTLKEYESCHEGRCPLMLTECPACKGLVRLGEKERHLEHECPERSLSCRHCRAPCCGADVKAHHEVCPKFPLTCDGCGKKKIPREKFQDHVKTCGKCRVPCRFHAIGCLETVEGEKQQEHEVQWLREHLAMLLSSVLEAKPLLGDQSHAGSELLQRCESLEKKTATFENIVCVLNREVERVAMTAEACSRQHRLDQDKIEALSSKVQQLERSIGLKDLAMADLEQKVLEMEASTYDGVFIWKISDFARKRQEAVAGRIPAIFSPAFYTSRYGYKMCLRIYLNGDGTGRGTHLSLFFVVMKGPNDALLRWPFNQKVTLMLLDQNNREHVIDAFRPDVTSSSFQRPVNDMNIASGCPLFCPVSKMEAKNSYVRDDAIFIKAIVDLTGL
Experimental: (§2) Cellular extracts from human 293 cells transfected with either FLAG-TRAF2, -TRAF5, or -TRAF6 were mixed with GST or GST-RANKed in the absence or presence of 100 μM of the indicated peptides. A GST-pull down assay was performed as described below. The bound TRAFs were visualized by immunoblotting with anti-FLAG antibodies.
(§3) Equivalent amounts of GST or GST-RANK cytoplasmic domain (GST-RANKed) fusion protein attached to 20 μl of glutathione agarose beads were mixed with lysates (50 μg) from 293 cells programmed to express the epitope-tagged TRAF protein and the indicated peptides in binding buffer (20 mM TRIS, pH 8, 150 mM NaCl, 1 mM DTT, 2 mM EDTA, and 0.1% NP-40) and allowed to rotate for 1 h at 4° C. The beads were collected by centrifugation, washed three times in binding buffer, and then washed once in low-salt buffer (20 mM TRIS, pH 8, 50 mM NaCl, and 1 mM DTT). Bound proteins were eluted with addition of SDS-sample buffer and boiled. The eluted proteins were subjected to 7.5% SDS-PAGE and western blot analysis was performed with anti-FLAG antibodies.
(§4) The cytoplasmic domain of RANK interacts with many TRAF molecules, including TRAF1, 2, 3, 5, and 6 (7-9, 11, 12). While TRAF1, 2, 3, and 5 interact with the c-terminal tail of receptor activator of NF-κB, TRAF6 interacts with a membrane proximal region of the cytoplasmic domain of the receptor activator of NF-κB. […]

[3] = biological target: T2, TRAF6 binding to the RANK cytoplasmic domain (Mus musculus, UniProt P70196); assay: Competitive GST-pull down assay, TRAF6 binding to RANK cytoplasmic domain; conditions: 100 μM peptide, FLAG-TRAF6 293 cell extract, GST-RANK cytoplasmic domain (FIG. 4C)
T2 construct: expressed in transfected cells; host or cells: human 293 cells (TRAF lysate); The GST-RANK fusion was purified as previously described
T2 sequence (P70196 1-530): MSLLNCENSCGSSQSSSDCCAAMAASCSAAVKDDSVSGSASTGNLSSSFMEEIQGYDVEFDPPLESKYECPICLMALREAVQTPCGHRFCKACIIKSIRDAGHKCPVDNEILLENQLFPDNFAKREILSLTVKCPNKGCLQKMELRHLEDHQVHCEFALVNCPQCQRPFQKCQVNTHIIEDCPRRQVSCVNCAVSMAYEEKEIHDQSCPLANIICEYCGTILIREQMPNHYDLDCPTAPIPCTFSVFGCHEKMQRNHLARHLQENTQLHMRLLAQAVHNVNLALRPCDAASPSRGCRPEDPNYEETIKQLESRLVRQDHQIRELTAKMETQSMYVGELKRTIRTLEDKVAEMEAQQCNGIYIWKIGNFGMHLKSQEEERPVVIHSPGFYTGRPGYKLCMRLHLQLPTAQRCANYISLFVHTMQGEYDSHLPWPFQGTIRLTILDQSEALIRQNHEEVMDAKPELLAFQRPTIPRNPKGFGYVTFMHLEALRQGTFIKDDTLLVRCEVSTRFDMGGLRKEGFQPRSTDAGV
Experimental: as §2, §3, §4

RAW264.7 cells = assay: RANKL-mediated osteoclast differentiation in RAW264.7 cells (TRAP staining); format: cell-based, mouse; conditions: RANKL, increasing amounts of peptide, 4-5 days (FIG. 2C)
Experimental: RAW264.7 cells were plated in 12-well plates and stimulated with RANKL (30 ng/ml) for 4 days. Cells were stained for TRAP essentially as described below. Photographs were taken using a 10× objective lens.
RAW cells were plated as described in FIG. 2A and treated with RANKL in the presence of 1, 30, or 100 μM of peptides as indicated. On day 4 cells were stained and evaluated as in FIG. 2A.
RAW264.7 cells were plated in 48-well plates in triplicate and treated with RANKL in the presence of increasing amounts of the indicated peptides. After 4-5 days, the cells were stained for TRAP and the total numbers of osteoclasts were counted as described below.
as §1
The mouse macrophage cell line RAW264.7 express the receptor activator of NF-κB on their cell surface and when stimulated with the receptor activator of NF-κB ligand differentiate into multi-nucleated, tartrate resistant acid phosphatase (TRAP) positive osteoclasts after 4-5 days (FIG. 2A). To determine whether L-T6DP-1 could inhibit RANKL-mediated osteoclast differentiation, RAW264.7 cells were co-cultured with increasing concentrations of either L-T6DP-1. or T6DP-1 and 30 ng/ml RANKL for 4 days.

[4] = biological target: T3, TRAF5 binding to the cytoplasmic domain of RANK (Mus musculus, UniProt P70191); assay: Competitive GST-pull down assay, TRAF5 binding to RANK cytoplasmic domain; conditions: 100 μM peptide, FLAG-TRAF5 293 cell extract (FIG. 4C)
T3 construct: expressed in transfected cells; host or cells: human 293 cells (TRAF lysate); The GST-RANK fusion was purified as previously described
T3 sequence (P70191 whole entry, the tested form may be a part): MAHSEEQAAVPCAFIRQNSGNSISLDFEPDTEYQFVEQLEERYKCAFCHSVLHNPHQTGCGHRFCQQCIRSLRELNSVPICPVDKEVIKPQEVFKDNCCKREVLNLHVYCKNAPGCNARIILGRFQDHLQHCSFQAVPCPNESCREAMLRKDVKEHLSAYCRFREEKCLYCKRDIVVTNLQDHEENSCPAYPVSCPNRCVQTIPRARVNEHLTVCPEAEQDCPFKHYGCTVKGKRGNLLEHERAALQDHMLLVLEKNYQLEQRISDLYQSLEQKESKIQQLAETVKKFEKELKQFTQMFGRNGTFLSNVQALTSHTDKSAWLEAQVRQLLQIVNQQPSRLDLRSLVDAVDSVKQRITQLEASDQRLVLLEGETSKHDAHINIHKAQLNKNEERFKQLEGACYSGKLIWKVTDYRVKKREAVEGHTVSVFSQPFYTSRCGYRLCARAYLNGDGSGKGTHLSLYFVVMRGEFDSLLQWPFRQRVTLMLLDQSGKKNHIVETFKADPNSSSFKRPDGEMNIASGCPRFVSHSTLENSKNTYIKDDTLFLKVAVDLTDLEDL
Experimental: as §2, §3, §4

L-T6DP-2: Kaposi fibroblast growth factor signal sequence hydrophobic domain attached to murine RANK peptide containing a similar TRAF6-binding motif (AAVALLPAVLLALLAPFQEPLEVGE)
development of TRAP positive osteoclasts [1]: inhibited | TRAF2 binding to the cytoplasmic domain of RANK [2]: neither L-T6DP-1 nor L-T6DP-2 inhibited | TRAF6 interaction with the cytoplasmic domain of RANK [3]: Only L-T6DP-1 inhibited | number of TRAP positive osteoclasts (RAW264.7 cells): dose-dependent decrease | TRAF5 binding to the cytoplasmic domain of RANK [4]: neither L-T6DP-1 nor L-T6DP-2 inhibited
